Test [1] concerns the target T1, Recombinant HSPG2 domain 1 (first 247 amino acids of human HSPG2, C-terminal His tag) (human, UniProt P98160 22-247).
T1 construct: range 1-247; The stated range counts from residue 1, so it includes the signal peptide; also called HSPG2D1; perlecan domain 1; not shown: C-terminal His tag from the pcDNA 3.3+ vector
The experiment in a line: biolayer interferometry (BLItz), HSPG2 domain 1 on Ni-NTA biosensor. As for the experimental part:
We used biolayer inferometry (BLItz, Fortebio) to determine antibody binding kinetics specifically with purified HSPG2 domain 1. Ni-NTA biosensors were hydrated for 10 minutes in phosphate buffered saline. Following hydration, a 30 second baseline was established, followed by a 10-minute loading of the biosensor with 10 μg/mL HSPG2 domain 1 protein. The biosensor was then placed in PBS to establish baseline for 30 seconds. A two-step antibody association—dissociation cycle of 5 minutes each was then used to determine the kinetic association (kₐ) and dissociation (kd) rate constants. The equilibrium dissociation constant (KD) was calculated as KD=kd/kₐ
An important caveat with flow cytometry-based titration curves is the potential for avidity affects contributing to the binding, resulting in an ‘apparent KD’. Biophysical techniques are most often employed to generate the true, analytically relevant ‘intrinsic KD^{’} value. We chose biolayer interferometry as a means of assessing the kinetics of antibody-antigen binding with HSPG2D1.

The target of test [2] is HSPG2 (perlecan) on cells (human, UniProt P98160 22-4391). The experiment in a line: apparent KD, flow cytometry titration on tumor cells. (In general: Flow cytometry measures light scatter and fluorescence of single cells or particles in a stream.)

B1: Tw1S4_6 IgG (antibody, V domains shown)
VH: EVQLLESGGGLVQPGGSLRLSCAASGFTFSSYAMSWVRQAPGKGLEWVSAIREDGIKTYYADSVKGRFTISRDNSKNTLYLQMNSLRAEDTAVYYCAKRARRFDYWGQGTLVTVS
VL: DIQMTQSPSSLSASVGDRVTITCRASQSISSYLNWYQQKPGKAPKLLIYNASLLQSGVPSRFSGSGSGTDFTLTISSLQPEDFATYYCQQSLRSPITFGQGTKVEIKR
As usually defined, the koff is the rate constant with which the complex falls apart. A word on the kon: it is the rate constant with which the complex forms. Regarding B1, in test [1], the Kd was 1.79 µM, the koff worked out at 0.0109 s⁻¹ and the kon came out at 6140 M⁻¹ s⁻¹. In test [2], the Kd was in the range of 0.125 to 0.275 µM.

These data come from patent publication US20200332020A1 (REGENTS OF THE UNIVERSITY OF MINNESOTA, published 2020).
